How the values were obtained:
[1] = In vitro stability in PBS; assay type: physicochemical; details: PBS pH 7.4, room temperature
Experimental: (§1) In vitro stability studies of ^99mTc-HYNIC-ADH1 were performed in FBS as well as PBS solution. A total of 50 μL of ^99mTc-HYNIC-ADH1 was mixed with 950 μL of FBS (or PBS), and its radioactivity was measured after being incubated at room temperature for 0.5, 1, 2, 4, 6 and 24 h, respectively.
(§2) For stability assessments, ^99mTc-HYNIC-ADH-1 (3.7 MBq) was incubated in PBS (pH 7.4) or FBS for 24 h. […] The radiochemical purities were 98.51%, 98.50%, 97.97%, 98.02%, 98.81%, 98.09% and 98.09% in FBS at room temperature at 0.5, 1, 2, 3, 6, 12 and 24 h, respectively.

[2] = In vitro stability in FBS; assay type: in vitro ADME; details: room temperature
Experimental: as §1, §2

[3] = Biodistribution in normal mice; assay type: in vivo, C57/BL6 mice; details: for tissue uptake at 0.5 h / tissue uptake at 1 h / tissue uptake at 2 h / tissue uptake at 4 h: i.v.; for tissue uptake at 0.5 h: 30 min; for tissue uptake at 1 h: 60 min; for tissue uptake at 2 h: 120 min; for tissue uptake at 4 h: 240 min
Experimental: (§3) The radiotracer (0.1 mL, 0.74 MBq) was injected intravenously into normal C57/BL6 mice and xenograft models as previously described (n = 4 per group per time) via the tail vein. After different time intervals (30, 60, 120 and 240 min), the mice were sacrificed by cervical dislocation, and their blood, tumors and major organs (brain, heart, lung, liver, spleen, kidney, stomach, intestine, muscle, bone and skin) were harvested and weighed. The radioactivity of each sample was measured with a γ-counter. Values are shown as the percentage of the injected dose per gram (%ID/g), which corrected for background and decay to maintain consistency.

[4] = Biodistribution in xenograft-bearing nude mice, PC9GR tumor; assay type: in vivo, BALB/c nude mice; details: mouse, iv, 0.74 MBq, xenograft-bearing nude mice, i.v., read-out: Biodistribution, T(PC9GR)
Experimental: (§4) All animal research was performed in accordance with the Zhejiang University Institutional Animal Care and Use Committee guidelines. PC9 and PC9GR cells (2 × 10^6 cells per mice) were injected subcutaneously into the flanks of 2- to 4-week old BALB/c nude mice (left: PC9GR, right: PC9). The cells were allowed to grow 3–5 weeks until tumors were 1 ± 0.5 cm^3 in volume. Normal C57/BL6 mice (aged 6 to 8 wks old) were obtained from the Animal Center of the First Affiliated Hospital of Zhejiang University. All animals were maintained with free access to food and water and used a standard diet, bedding and environment.
as §3

PC9GR tumor = test: as above; assay type: in vivo, BALB/c nude mice; details: biodistribution, tumor-bearing mice
Experimental: as §4, §3

[5] = Biodistribution in xenograft-bearing nude mice, PC9 tumor; assay type: in vivo, BALB/c nude mice; details: mouse, tumor (PC9), iv, 0.74 MBq, xenograft-bearing nude mice, i.v., read-out: Biodistribution, T(PC9)
Experimental: as §4, §3

PC9 tumor = test: as above; assay type: in vivo, BALB/c nude mice; details: biodistribution, tumor-bearing mice
Experimental: as §4, §3

[6] = mouse, blood, iv, 0.74 MBq, normal C57/BL6 mice, read-out: Biodistribution, Blood
[7] = mouse, bone, iv, 0.74 MBq, normal C57/BL6 mice, read-out: Biodistribution, Bone
[8] = mouse, brain, iv, 0.74 MBq, normal C57/BL6 mice, read-out: Biodistribution, Brain
[9] = mouse, heart, iv, 0.74 MBq, normal C57/BL6 mice, read-out: Biodistribution, Heart
[10] = mouse, intestine, iv, 0.74 MBq, normal C57/BL6 mice, read-out: Biodistribution, Intestine
[11] = mouse, kidney, iv, 0.74 MBq, normal C57/BL6 mice, read-out: Biodistribution, Kidney
[12] = mouse, liver, iv, 0.74 MBq, normal C57/BL6 mice, read-out: Biodistribution, Liver
[13] = mouse, lung, iv, 0.74 MBq, normal C57/BL6 mice, read-out: Biodistribution, Lung
[14] = mouse, muscle, iv, 0.74 MBq, normal C57/BL6 mice, read-out: Biodistribution, Muscle
[15] = mouse, skin, iv, 0.74 MBq, normal C57/BL6 mice, read-out: Biodistribution, Skin
[16] = mouse, spleen, iv, 0.74 MBq, normal C57/BL6 mice, read-out: Biodistribution, Spleen
[17] = mouse, stomach, iv, 0.74 MBq, normal C57/BL6 mice, read-out: Biodistribution, Stomach

CC(=O)N[C@H]1CSSC[C@@H](C(=O)NCCNC(=O)c2ccc(NN)nc2)NC(=O)[C@H](C(C)C)NC(=O)[C@H](C)NC(=O)[C@H](Cc2c[nH]cn2)NC1=O [^99mTc-HYNIC-ADH-1, metal not drawn]
radiochemical purity ([1]; 0.5 h): 99.01% | radiochemical purity ([1]; 1 h): 98.81% | radiochemical purity ([1]; 2 h): 98.55% | radiochemical purity ([1]; 3 h): 99.02% | radiochemical purity ([1]; 6 h): 98.52% | radiochemical purity ([1]; 12 h): 98.01% | radiochemical purity ([2]; 0.5 h): 98.51% | radiochemical purity ([2]; 1 h): 98.50% | radiochemical purity ([2]; 2 h): 97.97% | radiochemical purity ([2]; 3 h): 98.02% | radiochemical purity ([2]; 6 h): 98.81% | radiochemical purity ([2]; 12 h): 98.09% | crossing of the blood–brain barrier ([3]; from biodistribution: no obvious distribution in the brain): could not cross the blood–brain barrier | tissue uptake at 0.5 h [3, 6]: 3.31 ± 0.37 %ID/g | tissue uptake at 1 h [3, 6]: 1.23 ± 0.07 %ID/g | tissue uptake at 2 h [3, 6]: 0.84 ± 0.19 %ID/g | tissue uptake at 4 h [3, 6]: 0.58 ± 0.08 %ID/g | tissue uptake at 0.5 h [3, 7]: 1.45 ± 0.11 %ID/g | tissue uptake at 1 h [3, 7]: 0.61 ± 0.14 %ID/g | tissue uptake at 2 h [3, 7]: 0.58 ± 0.3 %ID/g | tissue uptake at 4 h [3, 7]: 0.44 ± 0.15 %ID/g | tissue uptake at 0.5 h [3, 8]: 0.18 ± 0.05 %ID/g | tissue uptake at 1 h [3, 8]: 0.09 ± 0.02 %ID/g | tissue uptake at 2 h [3, 8]: 0.1 ± 0.02 %ID/g | tissue uptake at 4 h [3, 8]: 0.08 ± 0.05 %ID/g | tissue uptake at 0.5 h [3, 9]: 1.71 ± 0.3 %ID/g | tissue uptake at 1 h [3, 9]: 0.49 ± 0.29 %ID/g | tissue uptake at 2 h [3, 9]: 0.43 ± 0.07 %ID/g | tissue uptake at 4 h [3, 9]: 0.32 ± 0.04 %ID/g | tissue uptake at 0.5 h [3, 10]: 2.96 ± 0.3 %ID/g | tissue uptake at 1 h [3, 10]: 2.14 ± 0.43 %ID/g | tissue uptake at 2 h [3, 10]: 1.78 ± 0.2 %ID/g | tissue uptake at 4 h [3, 10]: 1.26 ± 0.33 %ID/g | tissue uptake at 5 min ([3]; mouse, kidney, iv, 0.74 MBq, normal C57/BL6 mice, 5 min): 22.1 ± 1.15 %ID/g | tissue uptake at 0.25 h ([3]; mouse, kidney, iv, 0.74 MBq, normal C57/BL6 mice, 15 min): 12 ± 0.73 %ID/g | tissue uptake at 0.5 h [3, 11]: 12.1 ± 0.47 %ID/g | tissue uptake at 1 h [3, 11]: 9.01 ± 0.76 %ID/g | tissue uptake at 2 h [3, 11]: 6.46 ± 0.3 %ID/g | tissue uptake at 4 h [3, 11]: 6.16 ± 0.51 %ID/g | tissue uptake at 0.5 h [3, 12]: 1.95 ± 0.17 %ID/g | tissue uptake at 1 h [3, 12]: 1.06 ± 0.2 %ID/g | tissue uptake at 2 h [3, 12]: 0.86 ± 0.15 %ID/g | tissue uptake at 4 h [3, 12]: 0.68 ± 0.12 %ID/g | tissue uptake at 0.5 h [3, 13]: 3.83 ± 0.12 %ID/g | tissue uptake at 1 h [3, 13]: 1.7 ± 0.14 %ID/g | tissue uptake at 2 h [3, 13]: 1.54 ± 0.56 %ID/g | tissue uptake at 4 h [3, 13]: 1.08 ± 0.27 %ID/g | tissue uptake at 0.5 h [3, 14]: 1.55 ± 0.8 %ID/g | tissue uptake at 1 h [3, 14]: 0.44 ± 0.08 %ID/g | tissue uptake at 2 h [3, 14]: 0.52 ± 0.29 %ID/g | tissue uptake at 4 h [3, 14]: 0.42 ± 0.21 %ID/g | tissue uptake at 0.5 h [3, 15]: 3.45 ± 0.44 %ID/g | tissue uptake at 1 h [3, 15]: 1.9 ± 0.58 %ID/g | tissue uptake at 2 h [3, 15]: 1.69 ± 0.4 %ID/g | tissue uptake at 4 h [3, 15]: 1.05 ± 0.18 %ID/g | tissue uptake at 0.5 h [3, 16]: 1.25 ± 0.1 %ID/g | tissue uptake at 1 h [3, 16]: 0.73 ± 0.24 %ID/g | tissue uptake at 2 h [3, 16]: 0.53 ± 0.12 %ID/g | tissue uptake at 4 h [3, 16]: 0.45 ± 0.11 %ID/g | tissue uptake at 0.5 h [3, 17]: 2.24 ± 0.42 %ID/g | tissue uptake at 1 h [3, 17]: 0.94 ± 0.23 %ID/g | tissue uptake at 2 h [3, 17]: 0.66 ± 0.09 %ID/g | tissue uptake at 4 h [3, 17]: 1.28 ± 0.43 %ID/g | tissue uptake at 2 h ([4]; tumor (PC9GR), 120 min): 1.32 ± 0.08 %ID/g | tissue uptake at 0.5 h ([4]; tumor, 30 min): 1.09 ± 0.15 %ID/g | tissue uptake at 1 h ([4]; tumor, 60 min): 1.26 ± 0.1 %ID/g | tissue uptake at 4 h ([4]; tumor, 240 min): 0.75 ± 0.19 %ID/g | T/NT PC9GR/Kidney (PC9GR tumor; 30 min): 0.42 ± 0.10 | T/NT PC9GR/Liver (PC9GR tumor; 30 min): 1.64 ± 0.24 | T/NT PC9GR/Muscle (PC9GR tumor; 30 min): 2.41 ± 0.12 | T/NT PC9GR/Kidney (PC9GR tumor; 1 h): 0.27 ± 0.04 | T/NT PC9GR/Liver (PC9GR tumor; 1 h): 1.58 ± 0.12 | T/NT PC9GR/Muscle (PC9GR tumor; 1 h): 2.64 ± 0.47 | T/NT PC9GR/Kidney (PC9GR tumor; 2 h): 0.49 ± 0.20 | T/NT PC9GR/Liver (PC9GR tumor; 2 h): 2.14 ± 0.69 | T/NT PC9GR/Muscle (PC9GR tumor; 2 h): 5.19 ± 1.89 | T/NT PC9GR/Kidney (PC9GR tumor; 4 h): 0.26 ± 0.13 | T/NT PC9GR/Liver (PC9GR tumor; 4 h): 1.36 ± 0.69 | T/NT PC9GR/Muscle (PC9GR tumor; 4 h): 3.62 ± 1.92 | tissue uptake at 0.5 h ([5]; 30 min): 0.99 ± 0.15 %ID/g | tissue uptake at 1 h ([5]; 60 min): 0.91 ± 0.03 %ID/g | tissue uptake at 2 h ([5]; 120 min): 0.79 ± 0.06 %ID/g | tissue uptake at 4 h ([5]; 240 min): 0.64 ± 0.16 %ID/g | T/NT PC9/Kidney (PC9 tumor; 30 min): 0.27 ± 0.06 | T/NT PC9/Liver (PC9 tumor; 30 min): 1.36 ± 0.15 | T/NT PC9/Muscle (PC9 tumor; 30 min): 1.97 ± 0.21 | T/NT PC9/Kidney (PC9 tumor; 1 h): 0.27 ± 0.03 | T/NT PC9/Liver (PC9 tumor; 1 h): 1.58 ± 0.06 | T/NT PC9/Muscle (PC9 tumor; 1 h): 2.59 ± 0.34 | T/NT PC9/Kidney (PC9 tumor; 2 h): 0.26 ± 0.06 | T/NT PC9/Liver (PC9 tumor; 2 h): 1.41 ± 0.21 | T/NT PC9/Muscle (PC9 tumor; 2 h): 3.36 ± 0.08 | T/NT PC9/Kidney (PC9 tumor; 4 h): 0.25 ± 0.02 | T/NT PC9/Liver (PC9 tumor; 4 h): 1.01 ± 0.31 | T/NT PC9/Muscle (PC9 tumor; 4 h): 2.78 ± 0.28

From article PMC9913320, “Development of ^99mTc-Hynic-Adh-1 Molecular Probe Specifically Targeting N-Cadherin and Its Preliminary Experimental Study in Monitoring Drug Resistance of Non-Small-Cell Lung Cancer” (Cancers, 2023)
